This note sets out measurements from article PMC6536551, “The viral protein corona directs viral pathogenesis and amyloid aggregation” (Nature Communications, 2019).

This data set deals with the molecule itself. Briefly: thioflavin-T fluorescence.

B1: NNFGAIL peptide (model amyloidogenic peptide derived from islet amyloid polypeptide, IAPP) (peptide)
peptide: NNFGAIL
notes: […]; text and methods print NNFGAIL; source: synthetic peptide (Pepscan)
B1: the binding result is recorded as “binds”.
